Measured values taken from patent publication US20180251559A1, “Methods for the Modulation of LGALS3BP to Treat Systemic Lupus Erythematosus” (Merck Patent GmbH, priority 2015, published 2018).

Assays:
Assay type in all cases: cell-based
[1] = test system: primary human B cells; assay: IgG secretion by stimulated primary human B cells (AlphaLISA); details: for IC50: pre-incubated 30 minutes, TLR7 agonist for 5 days, AlphaLISA, read-out: IgG production
Protocol: (§1) A library of conditioned cell culture supernatants with secreted proteins was added and IgG secretion and cell viability (CTG, CellTiter-Glo) measured at the end of culture.
IgG was measure by AlphaLISA 5 days after stimulation.
FIG. 3A-1 and FIG. 3A-2 show data from isolated primary human B cells that were stimulated with small molecule TLR7 agonist in the presence of potential LGALS3BP inhibitors and controls (left). Anti-LGALS3BP antibody was added to primary human B cells activated with CpG or anti-IgM/CD40L/CpG (right). IgG secretion was measured 5 days later by AlphaLISA.
(§2) To identify secreted proteins that affect IgG production by B cells a selection of proteins from the human secretome in an IgG secretion assay were screened using primary human B cells. B cells from healthy volunteers were exposed to 1400 recombinantly expressed secreted proteins before activation with a TLR7 small molecule agonist. After 5 days IgG was measured to identify proteins that enhance or inhibit IgG secretion. […] LGALS3BP was independently identified as the most differentially regulated gene in blood from lupus nephritis patients compared to healthy volunteers.
(§3) The effect of anti-LGALS3BP antibodies on IgG secretion by primary human B cells was evaluated. IgG secretion by TLR7 activated B cells was inhibited by almost 90% in presence of anti-LGALS3BP antibody or anti-LGALS3BP F(ab′)2 (74%) to exclude inhibition through FcγRIIb present on B cells (FIGS. 3A-1 and 3A-2). […] The same inhibitory effect of the LGALS3BP antibody was observed when B cells were activated with CpG (94%) or anti-IgM/CD40L/CpG (77%). IgM secretion was inhibited by antibody blockade as well excluding a role of LGALS3BP in isotype switching (FIG. 3B-1, FIG. 3B-2 and FIG. 3B-3). […] IL-6 secretion was measured to investigate if LGALS3BP blockade interferes with TLR7 activation and signaling thereby reducing B cell proliferation. A 37% decrease in IL-6 production was observed 48 h after B cell stimulation in the presence of anti-LGALS3BP antibody. This reduction was LGALS3BP specific and not mediated through FcγRIIb given the same effect was measured in the presence of Fc block or with anti-LGALS3BP F(ab′)2. Lactose also had the same effect, thereby, excluding a direct effect of the antibody through cross-linking the surface-bound protein. […] To test if anti-LGALS3BP antibodies reduce B cell survival by blocking B cell activation CD69 upregulation was measured 16 h after activation with TLR7 agonist (FIG. 3C-1, FIG. 3C-2 and FIG. 3C-3). No difference in percentage of CD69^+ activated cells or expression levels of CD69 was observed when an anti-LGALS3BP antibody was added. LGALS3BP blockade inhibits IgG secretion independent of the stimulation protocol used. To determine if LGALS3BP blockade has an effect on B cell survival in the absence of stimulation additional experiments were conducted. Adding the antibody to non-stimulated B cells reduced viability by 66% (FIG. 3D-1 and FIG. 3D-2). This effect was most pronounced in B cells.
(§4) Primary B cells from healthy human donors were stimulated in the presence of galectin-3 inhibitors in order to determine if galectin-3 plays a role in the function of LGALS3BP in B cell biology. Specifically, freshly isolated B cells from healthy volunteers were pre-incubated with galectin-3 (Gal-3) inhibitors for 30 minutes before stimulation with TLR7 agonist for 5 days. Supernatants were harvested and IgG measured by AlphaLISA. Cell viability was measured by CellTiter-Glo (ATP production).

[2] = test system: primary human B cells; assay: Viability of TLR7 agonist-stimulated B cells (CellTiter-Glo, ATP); details: for IC50: pre-incubated 30 minutes, TLR7 agonist for 5 days, CellTiter-Glo
Protocol: as §1
B cell viability was measured 5 days later by CellTiter-Glo.
as §2, §4

[3] = test system: primary human B cells; assay: IL-6 secretion by TLR7 agonist-activated B cells (AlphaLISA); details: 48 h after B cell stimulation with TLR7 agonist
Protocol: IL-6 secretion was measured 2 days after stimulation by AlphaLISA.
as §3, with “F(ab′)2.” for “F(ab′)2. Lactose also had the same effect, thereby, excluding a direct effect of the antibody through cross-linking the surface-bound protein.”, “No difference in percentage of CD69^+ activated cells or expression levels of CD69 was observed when an anti-LGALS3BP antibody was added. LGALS3BP blockade inhibits IgG secretion independent of the stimulation protocol used. To determine if LGALS3BP blockade has an effect on B cell survival in the absence of stimulation additional experiments were conducted. Adding the antibody to non-stimulated B cells reduced viability by 66% (FIG. 3D-1 and FIG. 3D-2). This effect was most pronounced in B cells.” left out

[4] = test system: primary human macrophages; assay: LGALS3BP induction in in vitro differentiated macrophages (QPCR, ELISA)
Description: Expression between samples was normalized using HPRT1 as a housekeeping gene. […] LGALS3BP has an IRF binding site consistent with regulation by type I interferons. To determine which pathways can induce LGALS3BP expression, primary human monocytes were differentiated into macrophages in vitro and subsequently were stimulated with IFN-α, IFN-γ, TLR4 agonist (LPS), TLR7/8 agonist (resiquimod) and TLR9 agonist (CpG). […] All stimuli induced secretion of IL-6.

[5] = test system: primary human B cells; assay: B cell activation, CD69 expression by flow cytometry; details: 16 h after stimulation with TLR7 agonist
Protocol: FIG. 2A-1 and FIG. 2A-2 show data from B cells stimulated with small molecule TLR7 agonist in the presence of increasing concentrations of purified recombinant LGALS3BP. B cell activation was measured 16 h later by flow cytometry quantifying CD69 expression.
To investigate if addition of LGALS3BP affects activation of naïve B cells CD69 expression was measured 16 h after stimulation with TLR7 agonist. All B cells had increased CD69 expression compared to non-stimulated cells but no change was seen upon addition of various concentrations of recombinant LGALS3BP (FIG. 2A-1 and FIG. 2A-2). The localization of endogenous LGALS3BP in primary human B cells with an antibody specific for LGALS3BP was then evaluated (FIG. 2b). […]
The effect of anti-LGALS3BP antibodies on IgG secretion by primary human B cells was evaluated. […] IL-6 secretion was measured to investigate if LGALS3BP blockade interferes with TLR7 activation and signaling thereby reducing B cell proliferation. […] This reduction was LGALS3BP specific and not mediated through FcγRIIb given the same effect was measured in the presence of Fc block or with anti-LGALS3BP F(ab′)2. […] To test if anti-LGALS3BP antibodies reduce B cell survival by blocking B cell activation CD69 upregulation was measured 16 h after activation with TLR7 agonist (FIG. 3C-1, FIG. 3C-2 and FIG. 3C-3). […]

Question: With CC(=O)N[C@H]1C(O)O[C@H](CO)[C@@H](O[C@@H]2O[C@H](CO)[C@H](O)[C@H](O)[C@H]2O)[C@@H]1O (stereo partly drawn) [LacNAc, N-Acetyl-D-lactosamine, N-Acetyl-D-lactosamine, reference compound] as the molecule, how does the IC50 ([1]; Homo sapiens, B-cell) read?
Answer: The IC50 was over 10 µM.

Question: What about the IC50 ([2]; Homo sapiens, B-cell) of the same molecule?
Answer: Its IC50 is over 10 µM.

Question: For OC[C@H]1O[C@@H](O[C@H]2[C@H](O)[C@@H](O)C(O)O[C@@H]2CO)[C@H](O)[C@@H](O)[C@H]1O (stereo partly drawn) [Lactose, reference compound], which “inhibition of IgG secretion” value ([1]; TLR7 activated B cells, 5 days) is on record?
Answer: The value was 59%.

Question: And the “IL-6 production, effect in words” value [3]?
Answer: The value was “same effect”.

Question: Which “IgG secretion, effect in words” value ([1]; TLR7 activated B cells) does the source give for OC[C@H]1O[C@@](CO)(O[C@H]2O[C@H](CO)[C@@H](O)[C@H](O)[C@H]2O)[C@@H](O)[C@@H]1O [sucrose, reference compound] here?
Answer: Its value is “did not inhibit IgG secretion”.

Question: With CCCO[C@@H]1O[C@H](CO)[C@@H](O[C@@H]2O[C@H](CO)[C@H](O)[C@H](O)[C@H]2O)[C@H](O)[C@H]1O [Beta n-propal lactoside, reference compound] as the molecule, how does the IC50 [1] read?
Answer: The IC50 was over 10 µM.

Question: What about the IC50 [2] of the same molecule?
Answer: The IC50 was over 10 µM.

B1: IFN-γ: interferon used as macrophage stimulus (protein, UniProt P01579 24-161, looked up)
Interferon gamma: QDPYVKEAENLKKYFNAGHSDVADNGTLFLGILKNWKEESDRKIMQSQIVSFYFKLFKNFKDDQSIQKSVETIKEDMNVKFFNSNKKKRDDFEKLTNYSVTDLNVQRKAIHELIQVMAELSPAAKTGKRKRSQMLFRG
Question: What does the source list for B1?
Answer: secretion of the LGALS3BP protein ([4]; ELISA in supernatants, stimuli for 20 h): increased secretion; LGALS3BP mRNA expression ([4]; QPCR, stimuli for 6 h): induced

B2: LGALS3BP: secreted scavenger receptor family protein, full length human sequence SEQ ID NO: 1; used as recombinant protein (protein, listed as Homo sapiens)
chain: MTPPRLFWVWLLVAGTQGVNDGDMRLADGGATNQGRVEIFYRGQWGTVCDNLWDLTDASVVCRALGFENATQALGRAAFGQGSGPIMLDEVQCTGTEASLADCKSLGWLKSNCRHERDAGVVCTNETRSTHTLDLSRELSEALGQIFDSQRGCDLSISVNVQGEDALGFCGHTVILTANLEAQALWKEPGSNVTMSVDAECVPMVRDLLRYFYSRRIDITLSSVKCFHKLASAYGARQLQGYCASLFAILLPQDPSFQMPLDLYAYAVATGDALLEKLCLQFLAWNFEALTQAEAWPSVPTDLLQLLLPRSDLAVPSELALLKAVDTWSWGERASHEEVEGLVEKIRFPMMLPEELFELQFNLSLYWSHEALFQKKTLQALEFHTVPFQLLARYKGLNLTEDTYKPRIYTSPTWSAFVTDSSWSARKSQLVYQSRRGPLVKYSSDYFQAPSDYRYYPYQSFQTPQHPSFLFQDKRVSWSLVYLPTIQSCWNYGFSCSSDELPVLGLTKSGGSDRTIAYENKALMLCEGLFVADVTDFEGWKAAIPSALDTNSSKSTSSFPCPAGHFNGFRTVIRPFYLTNSSGVD
Question: Which “increase in IgG” value ([1]; purified recombinant protein, B cells stimulated with TLR9 agonist CpG) does the source give for B2 here?
Answer: Its value is 1.9 fold.

Question: What about the “enhanced IgG production” value ([1]; purified recombinant protein, TLR7 agonist, B cells from 6 healthy volunteers, 5 days) of the same molecule?
Answer: The value was 1.6 fold.

Question: What about the “increase in IgG” value ([1]; purified recombinant protein, activation cocktail with anti-IgM, CD40L and CpG) of the same molecule?
Answer: Its value is 1.2 fold.

Question: What about the “enhanced IgG secretion” value ([1]; secretome screen, recombinantly expressed secreted proteins, TLR7 small molecule agonist, 5 days) of the same molecule?
Answer: The value was 4.1 fold.

Question: And the “cell viability and metabolic activity (ATP measured by CellTiter-Glo assay)” value ([2]; secretome screen, TLR7 small molecule agonist, 5 days)?
Answer: The value was “doubled”.

Question: What about the “CD69 expression / percentage of CD69+ activated cells” value [5] of the same molecule?
Answer: The value was “no change”.
